In the experiment the target is human telomeric nucleosome core particle (teloNCP) (human, UniProt P68431 1-136; P62805 1-103; P04908 1-130; P06899 1-124). In words: EMSA, concentration at 50% bound.

The results in this text go back to publication PMC10456876 (2023).

B1: wild-type MBP-tagged TRF1core (TRF1-TIN2-TPP1) (complex)
chain 1: MAEDVSSAAPSPRGCADGRDADPTEEQMAETERNDEEQFECQELLECQVQVGAPEEEEEEEEDAGLVAEAEAVAAGWMLDFLCLSLCRAFRDGRSEDFRRTRNSAEAIIHGLSSLTACQLRTIYICQFLTRIAAGKTLDAQFENDERITPLESALMIWGSIEKEHDKLHEEIQNLIKIQAIAVCMENGNFKEAEEVFERIFGDPNSHMPFKSKLLMIISQKDTFHSFFQHFSYNHMMEKIKSYVNYVLSEKSSTFLMKAAAKVVESKRTRTITSQDKPSGNDVEMETEANLDTRKSVSDKQSAVTESSEGTVSLLRSHKNLFLSKLQHGTQQQDLNKKERRVGTPQSTKKKKESRRATESRIPVSKSQPVTPEKHRARKRQAWLWEEDKNLRSGVRKYGEGNWSKILLHYKFNNRTSVMLKDRWRTMKKLKLISSDSED
chain 2: MATPLVAGPAALRFAAAASWQVVRGRCVEHFPRVLEFLRSLRAVAPGLVRYRHHERLCMGLKAKVVVELILQGRPWAQVLKALNHHFPESGPIVRDPKATKQDLRKILEAQETFYQQVKQLSEAPVDLASKLQELEQEYGEPFLAAMEKLLFEYLCQLEKALPTPQAQQLQDVLSWMQPGVSITSSLAWRQYGVDMGWLLPECSVTDSVNLAEPMEQNPPQQQRLALHNPLPKAKPGTHLPQGPSSRTHPEPLAGRHFNLAPLGRRRVQSQWASTRGGHKERPTVMLFPFRNLGSPTQVISKPESKEEHAIYTADLAMGTRAASTGKSKSPCQTLGGRALKENPVDLPATEQKENCLDCYMDPLRLSLLPPRARKPVCPPSLCSSVITIGDLVLDSDEEENGQGEGKESLENYQKTKFDTLIPTLCEYLPPSGHGAIPVSSCDCRDSSRPL
chain 3: MAGSGRLVLRPWIRELILGSETPSSPRAGQLLEVLQDAEAAVAGPSHAPDTSDVGATLLVSDGTHSVRCLVTREALDTSDWEEKEFGFRGTEGRLLLLQDCGVHVQVAEGGAPAEFYLQVDRFSLLPTEQPRLRVPGCNQDLDVQKKLYDCLEEHLSESTSSNAGLSLSQLLDEMREDQEHQGALVCLAESCLTLEGPCTAPPVTHWAASRCKATGEAVYTVPSSMLCISENDQLILSSLGPCQRTQGPELPPPDPALQDLSLTLIASPPSSPSSSGTPALPGHMSSEESGTSISLLPALSLAAPDPGQRSSSQPSPAICSAPATLTPRSPHASRTPSSPLQSCTPSLSPRSHVPSPHQALVTRPQKPSLEFKEFVGLPCKNRPPFPRTGATRGAQEPCSVWEPPKRHRDGSAFQYEYEPPCTSLCARVQAVRLPPQLMAWALHFLMDAQPGSEPTPM
modifications: phosphoserine at 434, 435 and 437 (reported for the purified TRF1core sample from Sf9)
B1 yielded a concentration giving a half-maximal response (EC50) of 37 nM.
